Earlier results, collected in article PMC4865444.

Assays:
[1] = target: Nef SF2 (Human immunodeficiency virus 1) (UniProt P03407)
[2] = target: Nef NL4-3 (Human immunodeficiency virus 1) (UniProt P04324)

UniProt P03407, sequence (P03407 2-210): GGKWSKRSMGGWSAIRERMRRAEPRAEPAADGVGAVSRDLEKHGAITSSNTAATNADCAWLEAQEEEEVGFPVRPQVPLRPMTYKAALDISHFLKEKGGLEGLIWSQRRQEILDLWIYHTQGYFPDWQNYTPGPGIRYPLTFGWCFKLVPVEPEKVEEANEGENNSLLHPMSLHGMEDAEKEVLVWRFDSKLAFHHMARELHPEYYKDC

In the case of Hck SH3 (from UniProt P08631), the Kd [1] is listed as 640 nM and the Kd [2] is listed as 1400 nM.
